This data set can be described thus: yeast display, Sf9 membrane polyspecificity reagent, FACS + sequencing; frameworks hold sequencing errors. Put shortly:
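Nanobodies came from a synthetic yeast display library in Saccharomyces cerevisiae BJ5465, induced with galactose for 36–48 hours and stained for 1 hour at 4 °C with 10% biotinylated, detergent-solubilized Sf9 membrane reagent. Cells were enriched on streptavidin microbeads and then FACS-sorted, with low and high (top ~1%) gates set on anti-HA fluorescence for expression and streptavidin fluorescence for reagent binding. Each polyreactivity label reflects the gate a clone came from. Genes were amplified by colony PCR, sequenced by MiSeq 2 × 250 and filtered by CDR length.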
Turning to “QVQLVESGGGLVQAGGSLRLSCAASGSTFADNAMGWDRQAPGKERELVAAISSDGSTNYADSVKGRFTISRDNAKNTVYLQMNSLKPEDTAVYYCNADGVYLGYPVVPPEGDYWGQGTQVTVSS”, the “polyreactivity (PSR sort gate)” value is “low polyreactivity”.

Consider “QVQLVESGGGLVQAGGSLRLSCAASGSTFADNAMGWYRQAPGKERELVASISSSATSTYYADSVKGRFTISRDNAKNTVYLQMNSLKPEDSAVYYCSKGRPWYRGDFWGQGTQVTVSS”, for which the “polyreactivity (PSR sort gate)” value is “low polyreactivity”.

In the case of “QVQLVESGGGLVQAGGSLRLSCAASGSTFAGNAMGWYRKAPGKERELVAAITFSGGRTDYADSVKGRFTISRDNAKNTVYLQMNSLNPEDTSVYYCAAPADDTVHYQNYYWGQGTQVTVSS”, the “polyreactivity (PSR sort gate)” value is on record as “low polyreactivity”.

In the case of “QVQLVESGGGLVQAGGSLRLSCAASGSTFAGNAMGWYRQAPGKERELVAAIDSSTGSTYYADSVKGRFTISRDNAKNTVYLQMNSLKPEDTAVYYCAAGYYWQYTSSSAQYAYDYWGQGTQVTVSS”, the “polyreactivity (PSR sort gate)” value was “low polyreactivity”.

For “QVQLVESGGGLVQAGGSLRLSCAASGSTFAGNAMGWYRQAPGKERELVAAIDSSTGSTYYSDSVKGRFTISRDNAKNTVYLQMNSLKPEDTSVYYCNKTSVLVKLDYWGQGTQVTVSS”, the “polyreactivity (PSR sort gate)” value was “low polyreactivity”.

Take “QVQLVESGGGLVQAGGSLRLSCAASGSTFAGNAMGWYRQAPGKERELVAAISSGDRTYYADSVKGRFIISRDNAKNTVYLQMNSLKPEDTAVYYCAAGLYLQGPFDYWGQGTQVTVSS”: the “polyreactivity (PSR sort gate)” value was “low polyreactivity”.

For “QVQLVESGGGLVQAGGSLRLSCAASGSTFAGNAMGWYRQAPGTDRELVAAIDSSTGSTYYADSVKGRYTISRDNAKNTVYLHMNSLKPEDTAVYYCNKTSFLVTLDYWGQGTQVTVSS”, the “polyreactivity (PSR sort gate)” value was “low polyreactivity”.

Regarding “QVQLVESGGGLVQAGGSLRLSCAASGSTFAGYAMGWYRQAPGKERELVAAISRGGRTYYADSVKGRFTISRDNAKNTVYLQMNSLKPEDTAVYYCAKYSAWYTYTYDYWGQGTQVTVSS”, the “polyreactivity (PSR sort gate)” value is given as “high polyreactivity”.

Consider “QVQLVESGGGLVQAGGSLRLSCAASGSTFAGYVMGWSRQAPGKERELVAAISRSGGSTYYADSVKGRFTISRDNAKNTVYLQMNSLKPEDTAVYYCNARYNTQRYRFLVQGDYWGQGTQVTVSS”, for which the “polyreactivity (PSR sort gate)” value is listed as “high polyreactivity”.

Turning to “QVQLVESGGGLVQAGGSLRLSCAASGSTFAGYVMGWYRQAPGKERELVAGISYRGGRTYYADSVKGRFTISRDNAKNTVYLQMNSLKPEDTAVYYCAAENAVTGTDGEYYYWGQGTQVTVSS”, the “polyreactivity (PSR sort gate)” value is “high polyreactivity”.

Regarding “QVQLVESGGGLVQAGGSLRLSCAASGSTFAGYVMGWYRQAPGKERELVASKSWSGGSTYYADSVKGRFTISRDNAKNTVNLQMNSLKPEETAVYYSNTRRYERTDSAYPDHDYPGYYWGQATQVTVSS”, the “polyreactivity (PSR sort gate)” value is “low polyreactivity”.

Consider “QVQLVESGGGLVQAGGSLRLSCAASGSTFAHKAMGWYRQAPGKEGEFVAGISTNGGSTYYADSVKGRFTISRDNAKNTVYLQMNSLKPEDTAVYYCAAVNYYDQYGDYYWGQGTQVTVSS”, for which the “polyreactivity (PSR sort gate)” value is reported as “low polyreactivity”.

In the case of “QVQLVESGGGLVQAGGSLRLSCAASGSTFAIYAMGWDRGAPGKEREVVAAISWRTGSTYYADSVKGRFTISRDNAKNTVYLQMNSLKPEDTAVYYCAAEFWFFAGWAYEYWGHGTQVTVSS”, the “polyreactivity (PSR sort gate)” value is “high polyreactivity”.

In the case of “QVQLVESGGGLVQAGGSLRLSCAASGSTFAIYAMGWYRKSPGKERELVASISGGSTNYADSVKGRFTISRDNAKNTVYLQMNSLKPEDTSVYYCAARGALHHWYRFDYWGQGTQVTLSS”, the “polyreactivity (PSR sort gate)” value was “low polyreactivity”.

For the sequence “QVQLVESGGGLVQAGGSLRLSCAASGSTFAIYPMGWYRPAPGKERELVAAITRSGGNTYYADSVKGRFTISRDNAKNTVYLQMNSLKPEDTAVYYCNAETYYWSAYAQYEYWGQGTQVTVSS”, the “polyreactivity (PSR sort gate)” value was “high polyreactivity”.

Consider “QVQLVESGGGLVQAGGSLRLSCAASGSTFAIYPMGWYRQAPGKETALVAAITRSGGNTYYADSVKGRFTISRDNAKNTVYLQMNSLKPEDTAVYYCNAETYYWSAYAQYDYWGQGTQVTVSS”, for which the “polyreactivity (PSR sort gate)” value is “high polyreactivity”.

Take “QVQLVESGGGLVQAGGSLRLSCAASGSTFAKYAMGWYRQAPGKERELVAAISLSGGSTYYADSVKGRFTISRDNAKNTVYLQMNSLKPEDTAVYYCNTPPSRYVRYGIYRYDYWGQGTQVTVSS”: the “polyreactivity (PSR sort gate)” value is reported as “high polyreactivity”.

For the sequence “QVQLVESGGGLVQAGGSLRLSCAASGSTFALYPMGCYRQAPGKERELVAGITIDGSTNYADSVKGRFTISRDNAKNTVYLQMNSLKPEDTAVYYCNADSYKYPLLKYRSDYWGQGTQVTVSS”, the “polyreactivity (PSR sort gate)” value was “low polyreactivity”.

As for “QVQLVESGGGLVQAGGSLRLSCAASGSTFANNDMGWYRQAPGIEREMVADIRSGGNTNYADSVKGRFTISRDNAKNTVVLQMHSVKPEDTAVYYCATDGYRIDVYQPDYRYDYWGQGTQVTVSS”, the “polyreactivity (PSR sort gate)” value is listed as “low polyreactivity”.

Regarding “QVQLVESGGGLVQAGGSLRLSCAASGSTFANYAMGWYRQAPGKERELVAAISRGGNTYYADSVKGRFTISRDNAKNTVYLQMNSLKPEDTAVYYCAARAPRFSRSSQPGDYWGQGTQVTVSS”, the “polyreactivity (PSR sort gate)” value was “high polyreactivity”.

With “QVQLVESGGGLVQAGGSLRLSCAASGSTFANYAMGWYRQAPGKERELVAVISWGGGSTYYADSVKGRFTISRDNAKNTVYLQMNSLKPEDTAVYYCAAVYDEYQTTHEYDYWGQGTQVNVSS”, the “polyreactivity (PSR sort gate)” value is on record as “low polyreactivity”.

Turning to “QVQLVESGGGLVQAGGSLRLSCAASGSTFAPNAMGWYRQAPGKERELVASIRRGGSTHYADSVKGRFTISRDNAKNTVYVQMNSLKPEDTAVYYCAKDVWRHYLNLYDYWGQGTQVTVSS”, the “polyreactivity (PSR sort gate)” value is “low polyreactivity”.

For the sequence “QVQLVESGGGLVQAGGSLRLSCAASGSTFAPNTMGWYRQAPGKERELVARITTSDGSTTYADSVKGRFTISRDYAKNTVFFQMNILNPEDTAVYYCARDNTFCTWPSSLYDYWGQGTQVTVSS”, the “polyreactivity (PSR sort gate)” value is reported as “low polyreactivity”.

For the sequence “QVQLVESGGGLVQAGGSLRLSCAASGSTFAPYAMGWYRQAPGKERELVAVITWSGGRTYYADSVKGRFTISRDNAKNTVYLQMNSLKPEDTAVYYCNDVPLLQGFNYWGQGTQGTVSS”, the “polyreactivity (PSR sort gate)” value was “high polyreactivity”.

Turning to “QVQLVESGGGLVQAGGSLRLSCAASGSTFAPYAMGWYRQAPGTERELVAALTTGGSTNYADYVKGRFTISRDNATNTVYLQMNSLKPEDTAVYYCNAEYGGGVDGTYKYYSEYDYWGQGTQVTVSS”, the “polyreactivity (PSR sort gate)” value is recorded as “low polyreactivity”.

Consider “QVQLVESGGGLVQAGGSLRLSCAASGSTFAQNVMGWYRQAPGKERELVAAITSSGSTNYADSVKGRFTISRDNAKNTVYLQMNILKPEDTAVFYCAKDVLAPYSRHDYWGQGTQVTVSS”, for which the “polyreactivity (PSR sort gate)” value is listed as “low polyreactivity”.

As to “QVQLVESGGGLVQAGGSLRLSCAASGSTFAQYAMGWYRQAPAKERELVAVISKRGGRTYYADSVKGRFTISRDNGKNTVYLQMNSLKPEDTAGYYCAADSGGPGYAMDYWGQGTQVTVSS”, the “polyreactivity (PSR sort gate)” value is listed as “high polyreactivity”.

On to “QVQLVESGGGLVQAGGSLRLSCAASGSTFARYAMGWYRQAPGKERELVAAISITGSTYYADSVKGRFTISRDNAKNTVYLQMNSLNPEDTAVYYCNVKSKYRYGYWGQGTQVTVSS”, for which the “polyreactivity (PSR sort gate)” value is recorded as “high polyreactivity”.

Consider “QVQLVESGGGLVQAGGSLRLSCAASGSTFASNAMGWYRQAPGKERELVAAISGSGGRTYYADSVKGRFTISRDNAKNTVYLQMNSLKQEDTAVYYCAADWVRRYNYWGQGTQVTVSS”, for which the “polyreactivity (PSR sort gate)” value is “high polyreactivity”.

Consider “QVQLVESGGGLVQAGGSLRLSCAASGSTFASNTMGWYRQAPGKERELVAAITQSGGTTYYAESVKGRFTISRDNAKNTVTLQMNSLKPEDTAVYYCATDVGYFYTVVGGYDYWGQGTQVTVSS”, for which the “polyreactivity (PSR sort gate)” value is “low polyreactivity”.

As for “QVQLVESGGGLVQAGGSLRLSCAASGSTFATYAMGWYRQAPGKERELVAAIRVSGGTTYADSVKGRFTISRDNAKNTVYLQMNSLKPEDNAVYYCAATGWEVYDIFDYWVQGTQVTVSS”, the “polyreactivity (PSR sort gate)” value is on record as “low polyreactivity”.

“QVQLVESGGGLVQAGGSLRLSCAASGSTFATYTMGWYRQAPGKERELVAAISVSGSRTYYADSVKGRFTISRDNAKNTVYLQMNSLKPEDTAVYYCNADPPVKLYLYDYWGQGTQVTVSS”: the “polyreactivity (PSR sort gate)” value is reported as “high polyreactivity”.

Consider “QVQLVESGGGLVQAGGSLRLSCAASGSTFATYVMGWYRQAPGKETELVAAISSSGSTNYADSVKGRFTISRDNAKNTVYLQMNSLKPEYTAVYYCAARYYRLTDRPYNPIVSYGYWGQGTQVTVSS”, for which the “polyreactivity (PSR sort gate)” value is given as “high polyreactivity”.

“QVQLVESGGGLVQAGGSLRLSCAASGSTFAVYAMGWNRQAPGKERELVASITRGGSTYYADSVKGRFTISRDNAKYTVYLQMNSLKPEDTAVYYCADSITHYWYGYWGQGTQVTVSS”: the “polyreactivity (PSR sort gate)” value is “high polyreactivity”.

With “QVQLVESGGGLVQAGGSLRLSCAASGSTFAWYAMGWYRQAPGKERELVAAISSGGRTYYADSVKGRFTISRDNAKNTVYLQMNSLKPEDTAVYYCNAVDWAYGMDYWGQGTQVTVSS”, the “polyreactivity (PSR sort gate)” value was “low polyreactivity”.

As to “QVQLVESGGGLVQAGGSLRLSCAASGSTFAWYTMGWYRQAPGKERELVASITSTGSTNYADSVKGRFTISRDNAKNTVYLQMNSLKPEDTAVYYCAAAVRAWYRRLYDYWGQGTQVTVSS”, the “polyreactivity (PSR sort gate)” value is “high polyreactivity”.

“QVQLVESGGGLVQAGGSLRLSCAASGSTFAYNAMGWYRQAPGKERELVAAITRSGGSTYYADSVKGRFTISRDNAKNTVYLQKNSLKPEDTAVYYCNKASGGYYVTSLYAYRYYYWGQGTQVTVSS”: the “polyreactivity (PSR sort gate)” value is listed as “high polyreactivity”.

Take “QVQLVESGGGLVQAGGSLRLSCAASGSTFAYNDMGWYRQAPGKERELVADSRSGGNTNYADSVKGRFTISRDNAKNTVYLQMNSLKREDTAVYYCATDGYRIDVFHPDYRYDYWGHGTQVTVSS”: the “polyreactivity (PSR sort gate)” value is “low polyreactivity”.

Turning to “QVQLVESGGGLVQAGGSLRLSCAASGSTFAYNTMGWYRQAPGKERELVAAISQRGGSTYADSVKGRFTISRDNAKNTVYLQMNSLKPEVTAVYYCNKRNVYYSYPFDYDYWGQGTQVTVSS”, the “polyreactivity (PSR sort gate)” value is “low polyreactivity”.

On to “QVQLVESGGGLVQAGGSLRLSCAASGSTFAYYAMGWYRQAPGKEREFVAAISSRKDSTYADSVKGRFTLSRDNAKNTVYLQMNSLKPEDTAVYYCAKGPYYWSSSRVRYDYWGQGTQVTVSS”, for which the “polyreactivity (PSR sort gate)” value is “high polyreactivity”.

These data come from the nanobody polyreactivity screen of Harvey et al. (2022).
